The target of this assay is T1, E. coli topoisomerase I with a N-terminus 6x-His tag (E. coli, UniProt P06612 1-865).
T1 sequence (looked up): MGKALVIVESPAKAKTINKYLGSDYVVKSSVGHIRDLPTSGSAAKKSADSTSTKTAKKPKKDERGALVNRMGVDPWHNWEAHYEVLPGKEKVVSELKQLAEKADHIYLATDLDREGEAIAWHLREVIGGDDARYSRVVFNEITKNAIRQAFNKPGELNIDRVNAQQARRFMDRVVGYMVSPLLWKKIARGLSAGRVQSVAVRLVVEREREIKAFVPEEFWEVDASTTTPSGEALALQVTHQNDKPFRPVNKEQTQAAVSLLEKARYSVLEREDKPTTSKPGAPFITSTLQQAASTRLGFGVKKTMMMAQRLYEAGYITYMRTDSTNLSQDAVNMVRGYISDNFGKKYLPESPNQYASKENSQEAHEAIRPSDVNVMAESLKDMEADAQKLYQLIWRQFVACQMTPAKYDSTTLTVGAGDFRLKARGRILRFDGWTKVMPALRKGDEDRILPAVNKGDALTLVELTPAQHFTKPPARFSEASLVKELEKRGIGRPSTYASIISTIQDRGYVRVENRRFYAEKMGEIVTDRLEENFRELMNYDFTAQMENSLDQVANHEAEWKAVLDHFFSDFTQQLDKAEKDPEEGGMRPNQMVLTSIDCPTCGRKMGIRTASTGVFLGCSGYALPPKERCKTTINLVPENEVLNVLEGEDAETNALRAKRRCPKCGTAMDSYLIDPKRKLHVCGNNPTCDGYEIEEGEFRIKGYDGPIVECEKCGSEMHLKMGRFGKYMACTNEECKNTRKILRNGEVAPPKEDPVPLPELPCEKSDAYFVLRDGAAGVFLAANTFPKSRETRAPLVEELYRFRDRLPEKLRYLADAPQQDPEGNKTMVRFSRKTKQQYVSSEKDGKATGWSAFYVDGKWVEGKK
As to the kind of experiment: pull-down.

B1: Purified E. coli RecA (natural protein)
chain: AIDENKQKALAAALGQIEKQFGKGSIMRLGEDRSMDVETISTGSLSLDIALGAGGLPMGRIVEIYGPESSGKTTLTLQVIAAAQREGKTCAFIDAEHALDPIYARKLGVDIDNLLCSQPDTGEQALEICDALARSGAVDVIVVDSVAALTPKAEIEGEIGDSHMGLAARMMSQAMRKLAGNLKQSNTLLIFINQIRMKIGVMFGNPETTTGGNALKFYASVRLDIRRIGAVKEGENVVGSETRVKVVKNKIAAPFKQAEFQILYGEGINFYGELVDLGVKEKLIEKAGAWYSYKGEKIGQGKANATAWLKDNPETAKEIEKKVRELLLSNPNSTPDFSVDDSEGVAETNEDF
With B1, the binding result is reported as “binds”.

The values above are taken from paper PMC4838544 (Gene, 2016).
